One test deals with EGFR-moFc S442R (human). Description: ELISA.
A further test addresses MET-huFc (human). Description: ELISA.

B1: Necitumumab (antibody, V domains shown)
VH: QVQLQESGPGLVKPSQTLSLTCTVSGGSISSGDYYWSWIRQPPGKGLEWIGYIYYSGSTDYNPSLKSRVTMSVDTSKNQFSLKVNSVTAADTAVYYCARVSIFGVGTFDYWGQGTLVTVSS
VL: EIVMTQSPATLSLSPGERATLSCRASQSVSSYLAWYQQKPGQAPRLLIYDASNRATGIPARFSGSGSGTDFTLTISSLEPEDFAVYYCHQYGSTPLTFGGGTKAEIKR
Take B1: the binding result with EGFR-moFc S442R is listed as “no binding”.

B2: eIg 1+1 H10x5D5 MET arm (antibody, V domains shown)
VH: EVQLVESGGGLVQPGGSLRLSCAASGYTFTSYWLHWVRQAPGKGLEWVGMIDPSNSDTRFNPNFKDRFTISADTSKNTAYLQMNSLRAEDTAVYYCATYRSYVTPLDYWGQGTLVTVSS
VL: DIQMTQSPSSLSASVGDRVTITCKSSQSLLYTSSQKNYLAWYQQKPGKAPKLLIYWASTRESGVPSRFSGSGSGTDFTLTISSLQPEDFATYYCQQYYAYPWTFGQGTKVEIKR
The molecule B2 registered an EC50 in the test with MET-huFc of 4.1 nM. In other words, the single-digit nanomolar range.

These data come from patent publication US20260297200 (published 2026).
